Data taken from the Human Domainome abundance scans (Beltran et al. 2025).
± gives the uncertainty stated by the source.

B1: Homeobox protein cut-like 1, residues 548 to 629; numbered along this chain, P39880 (parent)
chain: GEEMDTAEIARQVKEQLIKHNIGQRIFGHYVLGLSQGSVSEILARPKPWNKLTVRGKEPFHKMKQFLSDEQNILALRSIQGR

Variants of: B1
Test: abundance fitness (aPCA) (normalised: wild type 0, dead -1); higher = more abundant; growth selection in yeast, the domain comes from the species named
Settings: Homo sapiens

| Variant | abundance fitness |
| --- | --- |
| GEFMDTAEIARQVKEQLIKHNIGQRIFGHYVLGLSQGSVSEILARPKPWNKLTVRGKEPFHKMKQFLSDEQNILALRSIQGR [E3F] | 0.1 ± 0.063 |
| GEGMDTAEIARQVKEQLIKHNIGQRIFGHYVLGLSQGSVSEILARPKPWNKLTVRGKEPFHKMKQFLSDEQNILALRSIQGR [E3G] | -0.155 ± 0.023 |
| GEHMDTAEIARQVKEQLIKHNIGQRIFGHYVLGLSQGSVSEILARPKPWNKLTVRGKEPFHKMKQFLSDEQNILALRSIQGR [E3H] | -0.027 ± 0.061 |
| GEIMDTAEIARQVKEQLIKHNIGQRIFGHYVLGLSQGSVSEILARPKPWNKLTVRGKEPFHKMKQFLSDEQNILALRSIQGR [E3I] | -0.081 ± 0.066 |
| GEKMDTAEIARQVKEQLIKHNIGQRIFGHYVLGLSQGSVSEILARPKPWNKLTVRGKEPFHKMKQFLSDEQNILALRSIQGR [E3K] | -0.064 ± 0.035 |
| GELMDTAEIARQVKEQLIKHNIGQRIFGHYVLGLSQGSVSEILARPKPWNKLTVRGKEPFHKMKQFLSDEQNILALRSIQGR [E3L] | -0.107 ± 0.031 |
| GEMMDTAEIARQVKEQLIKHNIGQRIFGHYVLGLSQGSVSEILARPKPWNKLTVRGKEPFHKMKQFLSDEQNILALRSIQGR [E3M] | -0.101 ± 0.039 |
| GENMDTAEIARQVKEQLIKHNIGQRIFGHYVLGLSQGSVSEILARPKPWNKLTVRGKEPFHKMKQFLSDEQNILALRSIQGR [E3N] | -0.119 ± 0.073 |
| GEPMDTAEIARQVKEQLIKHNIGQRIFGHYVLGLSQGSVSEILARPKPWNKLTVRGKEPFHKMKQFLSDEQNILALRSIQGR [E3P] | -0.137 ± 0.045 |
| GEQMDTAEIARQVKEQLIKHNIGQRIFGHYVLGLSQGSVSEILARPKPWNKLTVRGKEPFHKMKQFLSDEQNILALRSIQGR [E3Q] | -0.089 ± 0.04 |
| GERMDTAEIARQVKEQLIKHNIGQRIFGHYVLGLSQGSVSEILARPKPWNKLTVRGKEPFHKMKQFLSDEQNILALRSIQGR [E3R] | -0.145 ± 0.025 |
| GESMDTAEIARQVKEQLIKHNIGQRIFGHYVLGLSQGSVSEILARPKPWNKLTVRGKEPFHKMKQFLSDEQNILALRSIQGR [E3S] | -0.118 ± 0.032 |
| GETMDTAEIARQVKEQLIKHNIGQRIFGHYVLGLSQGSVSEILARPKPWNKLTVRGKEPFHKMKQFLSDEQNILALRSIQGR [E3T] | -0.057 ± 0.036 |
| GEVMDTAEIARQVKEQLIKHNIGQRIFGHYVLGLSQGSVSEILARPKPWNKLTVRGKEPFHKMKQFLSDEQNILALRSIQGR [E3V] | -0.098 ± 0.028 |
| GEWMDTAEIARQVKEQLIKHNIGQRIFGHYVLGLSQGSVSEILARPKPWNKLTVRGKEPFHKMKQFLSDEQNILALRSIQGR [E3W] | -0.017 ± 0.031 |
| GEYMDTAEIARQVKEQLIKHNIGQRIFGHYVLGLSQGSVSEILARPKPWNKLTVRGKEPFHKMKQFLSDEQNILALRSIQGR [E3Y] | -0.091 ± 0.063 |
| GEEADTAEIARQVKEQLIKHNIGQRIFGHYVLGLSQGSVSEILARPKPWNKLTVRGKEPFHKMKQFLSDEQNILALRSIQGR [M4A] | -0.432 ± 0.036 |

| Variant | abundance fitness |
| --- | --- |
| GEECDTAEIARQVKEQLIKHNIGQRIFGHYVLGLSQGSVSEILARPKPWNKLTVRGKEPFHKMKQFLSDEQNILALRSIQGR [M4C] | -0.677 ± 0.1 |
| GEEDDTAEIARQVKEQLIKHNIGQRIFGHYVLGLSQGSVSEILARPKPWNKLTVRGKEPFHKMKQFLSDEQNILALRSIQGR [M4D] | -0.304 ± 0.054 |
| GEEEDTAEIARQVKEQLIKHNIGQRIFGHYVLGLSQGSVSEILARPKPWNKLTVRGKEPFHKMKQFLSDEQNILALRSIQGR [M4E] | -0.191 ± 0.033 |
| GEEFDTAEIARQVKEQLIKHNIGQRIFGHYVLGLSQGSVSEILARPKPWNKLTVRGKEPFHKMKQFLSDEQNILALRSIQGR [M4F] | -0.244 ± 0.072 |
| GEEGDTAEIARQVKEQLIKHNIGQRIFGHYVLGLSQGSVSEILARPKPWNKLTVRGKEPFHKMKQFLSDEQNILALRSIQGR [M4G] | -0.523 ± 0.031 |
| GEEHDTAEIARQVKEQLIKHNIGQRIFGHYVLGLSQGSVSEILARPKPWNKLTVRGKEPFHKMKQFLSDEQNILALRSIQGR [M4H] | -0.304 ± 0.069 |
| GEEIDTAEIARQVKEQLIKHNIGQRIFGHYVLGLSQGSVSEILARPKPWNKLTVRGKEPFHKMKQFLSDEQNILALRSIQGR [M4I] | 0.101 ± 0.055 |
| GEEKDTAEIARQVKEQLIKHNIGQRIFGHYVLGLSQGSVSEILARPKPWNKLTVRGKEPFHKMKQFLSDEQNILALRSIQGR [M4K] | -0.36 ± 0.039 |
| GEELDTAEIARQVKEQLIKHNIGQRIFGHYVLGLSQGSVSEILARPKPWNKLTVRGKEPFHKMKQFLSDEQNILALRSIQGR [M4L] | 0.002 ± 0.03 |
| GEENDTAEIARQVKEQLIKHNIGQRIFGHYVLGLSQGSVSEILARPKPWNKLTVRGKEPFHKMKQFLSDEQNILALRSIQGR [M4N] | -0.331 ± 0.056 |
| GEEPDTAEIARQVKEQLIKHNIGQRIFGHYVLGLSQGSVSEILARPKPWNKLTVRGKEPFHKMKQFLSDEQNILALRSIQGR [M4P] | -0.318 ± 0.05 |
| GEEQDTAEIARQVKEQLIKHNIGQRIFGHYVLGLSQGSVSEILARPKPWNKLTVRGKEPFHKMKQFLSDEQNILALRSIQGR [M4Q] | -0.2 ± 0.037 |
| GEERDTAEIARQVKEQLIKHNIGQRIFGHYVLGLSQGSVSEILARPKPWNKLTVRGKEPFHKMKQFLSDEQNILALRSIQGR [M4R] | -0.517 ± 0.029 |
| GEESDTAEIARQVKEQLIKHNIGQRIFGHYVLGLSQGSVSEILARPKPWNKLTVRGKEPFHKMKQFLSDEQNILALRSIQGR [M4S] | -0.355 ± 0.035 |
| GEETDTAEIARQVKEQLIKHNIGQRIFGHYVLGLSQGSVSEILARPKPWNKLTVRGKEPFHKMKQFLSDEQNILALRSIQGR [M4T] | -0.204 ± 0.038 |
| GEEWDTAEIARQVKEQLIKHNIGQRIFGHYVLGLSQGSVSEILARPKPWNKLTVRGKEPFHKMKQFLSDEQNILALRSIQGR [M4W] | -0.23 ± 0.034 |
| GEEYDTAEIARQVKEQLIKHNIGQRIFGHYVLGLSQGSVSEILARPKPWNKLTVRGKEPFHKMKQFLSDEQNILALRSIQGR [M4Y] | -0.203 ± 0.066 |
